# Laboratory results from PMC6748615.
# Read-outs that look alike come from different tables or passages of the source.
# B1: rat FcRn (receptor)
# chain 1: AEPRLPLMYHLAAVSDLSTGLPSFWATGWLGAQQYLTYNNLRQEADPCGAWIWENQVSWYWEKETTDLKSKEQLFLEAIRTLENQINGTFTLQGLLGCELAPDNSSLPTAVFALNGEEFMRFNPRTGNWSGEWPETDIVGNLWMKQPEAARKESEFLLTSCPERLLGHLERGRQNLEWKEPPSMRLKARPGNSGSSVLTCAAFSFYPPELKFRFLRNGLASGSGNCSTGPNGDGSFHAWSLLEVKRGDEHHYQCQVEHEGLAQPLTVDLDSPARSS
# chain 2: IQKTPQIQVYSRHPPENGKPNFLNCYVSQFHPPQIEIELLKNGKKIPNIEMSDLSFSKDWSFYILAHTEFTPTETDVYACRVKHVTLKEPKTVTWDRDM
# What was measured:
# [1] = target: biotinylated human FcRn (human) (UniProt P55899); experiment: SPR
# Sequence of UniProt P55899 (P55899 24-297, chain 1 of 2): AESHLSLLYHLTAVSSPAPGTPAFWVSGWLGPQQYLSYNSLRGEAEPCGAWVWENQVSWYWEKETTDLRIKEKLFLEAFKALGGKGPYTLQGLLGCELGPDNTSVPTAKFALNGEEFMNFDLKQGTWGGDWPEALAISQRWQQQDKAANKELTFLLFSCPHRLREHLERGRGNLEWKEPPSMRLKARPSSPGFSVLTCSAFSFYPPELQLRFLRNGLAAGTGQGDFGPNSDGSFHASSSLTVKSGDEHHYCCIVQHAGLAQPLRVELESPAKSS
# Sequence of UniProt P55899 (P61769 21-119, chain 2 of 2, further chain): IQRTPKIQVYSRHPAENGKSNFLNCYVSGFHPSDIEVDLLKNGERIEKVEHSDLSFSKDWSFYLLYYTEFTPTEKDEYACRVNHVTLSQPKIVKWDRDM
# rat FcRn (rat) = rat FcRn (rat) (UniProt P13599); experiment: SPR
# [2] = target: Human CD16a (FcγRIIIa-V158) (human) (UniProt P08637); experiment: SPR
# [3] = target: biotinylated human FcRn (human) (UniProt P55899); experiment: FcRn affinity chromatography
# [4] = target: biotinylated human FcRn (human) (UniProt P55899); experiment: SPR; remark: listed apart in the source
# [5] = target: biotinylated human FcRn (human) (UniProt P55899)
# [6] = target: biotinylated cynomolgus FcRn (cynomolgus) (UniProt Q8SPV9)
# Sequence of UniProt Q8SPV9 (Q8SPV9 24-297, chain 1 of 2): as the sequence (P55899 24-297, chain 1 of 2) above, with N39D, E44Q, G99S, S189G, S190N, L217M, S269T counted along it
# Sequence of UniProt Q8SPV9 (Q8SPW0 21-119, chain 2 of 2, further chain): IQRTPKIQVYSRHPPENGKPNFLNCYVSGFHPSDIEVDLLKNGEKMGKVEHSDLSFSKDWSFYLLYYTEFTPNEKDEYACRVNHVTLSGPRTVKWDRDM
# mAb1 N434F = experiment: BLI
# mAb1 M252Y = experiment: BLI
# mAb1 N434Y = experiment: BLI
Molecule,Kd [1] [nM],koff [1] [s⁻¹],kon [1] [M⁻¹ s⁻¹],"steady state RU, pH 7.4 [1] [RU]",Kd (rat FcRn (rat)) [nM],"steady state RU, pH 7.4 (rat FcRn (rat)) [RU]",elution pH [3] [pH],further results
mAb1 AAA (T307A/E380A/N434A) (antibody),1780,0.144,83700,13.9,77,23.6,7.94,affinity fold change vs WT [2]: 0.89 fold
mAb1 E380C (antibody),–,–,–,–,6310,–,7.18,–
mAb1 K288D (antibody),–,–,–,–,149,–,7.33,–
mAb1 K288N (antibody),–,–,–,–,190,–,7.39,–
mAb1 LS (M428L/N434S) (antibody),272,0.052,193000,18.3,74,24.8,8.29,"steady state RU, pH 7.4 [4]: 18.5 RU; affinity fold change vs WT [2]: 1.04 fold"
mAb1 M252Y (antibody),3100,–,–,–,25,–,7.88,–
mAb1 MDQN (DQ: T256D/T307Q) (antibody),232,0.872,37600,10.7,9.54,39.1,7.92,steady state RU [2]: 103 RU
mAb1 MDWN (DW: T256D/T307W) (antibody),169,0.892,52900,12.2,8.24,42.1,7.92,steady state RU [2]: 126 RU
mAb1 N434F (antibody),165,–,–,20.1,26,54.9,–,–
mAb1 N434P (antibody),–,–,–,–,194,–,7.56,–
mAb1 N434Y (antibody),137,0.052,359000,22.6,23,47,8.46,affinity fold change vs WT [2]: 1.41 fold
mAb1 T256D (antibody),6700,–,–,–,86,–,7.82,–
mAb1 T256E (antibody),–,–,–,–,113,–,7.63,–
mAb1 T307A (antibody),–,–,–,–,132,–,7.61,–
mAb1 T307E (antibody),8130,0.298,43700,–,141,–,7.58,–
mAb1 T307F (antibody),–,–,–,–,131,–,7.61,–
mAb1 T307M (antibody),–,–,–,–,279,–,7.4,–

Molecule,Kd [1] [nM],koff [1] [s⁻¹],kon [1] [M⁻¹ s⁻¹],"steady state RU, pH 7.4 [1] [RU]",Kd (rat FcRn (rat)) [nM],"steady state RU, pH 7.4 (rat FcRn (rat)) [RU]",elution pH [3] [pH],further results
mAb1 T307Q (antibody),5720,0.215,39600,–,58,–,7.86,affinity fold change vs WT [2]: 1 fold
mAb1 T307W (antibody),8740,–,–,–,111,–,7.75,–
mAb1 WT (model IgG1) (antibody),2380,0.386,162000,–,207,–,7.37,affinity fold change vs WT [2]: 1 fold
mAb1 Y436H (antibody),–,–,–,–,131,–,7.33,–
mAb1 Y436N (antibody),–,–,–,–,233,–,7.22,–
mAb1 Y436W (antibody),–,–,–,–,1140,–,7.39,–
mAb1 YDQN (M252Y/T256D/T307Q) (antibody),115,0.282,24600,19.8,5.12,65.2,8.51,steady state RU [2]: 59.2 RU
mAb1 YDTN (YD: M252Y/T256D) (antibody),93.6,0.593,63300,9.7,5.86,56,8.29,steady state RU [2]: 67.7 RU
mAb1 YEQN (M252Y/T256E/T307Q) (antibody),218,0.405,18500,15.2,7.76,61.8,8.12,steady state RU [2]: 43.5 RU
mAb1 YETN (M252Y/T256E) (antibody),128,0.757,59200,9.8,8.43,55.1,7.83,steady state RU [2]: 58.5 RU
mAb1 YTE (M252Y/S254T/T256E) (antibody),342,–,143000,13.2,–,53.9,8.14,"steady state RU, pH 7.4 [4]: 13.1 RU; affinity fold change vs WT [2]: 0.52 fold"
mAb1 YTWN (M252Y/T307W) (antibody),118,–,48300,15.9,5.21,66.1,8.14,steady state RU [2]: 67.5 RU
mAb2 DQ (T256D/T307Q) (antibody),–,–,–,–,–,–,–,"plasma elimination half-life t1/2 in hFcRn Tg32 transgenic mice, 2.5 mg/kg i.v. [5]: 24.5 days"
mAb2 DW (T256D/T307W) (antibody),–,–,–,–,–,–,–,"plasma elimination half-life t1/2 in hFcRn Tg32 transgenic mice, 2.5 mg/kg i.v. [5]: 20.1 days; plasma elimination half-life t1/2 in cynomolgus monkeys, 2.5 mg/kg i.v. [6]: 20.4 days"
mAb2 YD (M252Y/T256D) (antibody),–,–,–,–,–,–,–,"plasma elimination half-life t1/2 in hFcRn Tg32 transgenic mice, 2.5 mg/kg i.v. [5]: 17.5 days; plasma elimination half-life t1/2 in cynomolgus monkeys, 2.5 mg/kg i.v. [6]: 23.5 days"
B1,–,–,–,–,–,–,–,fold slower off rate than WT (mAb1 N434F): > 1.8 fold; fold slower off rate than WT (mAb1 M252Y): > 1.8 fold; fold slower off rate than WT (mAb1 N434Y): > 1.8 fold
